Legend:
cynoBTLA-human Fc = molecular target: T1, cynoBTLA-human Fc (cynomolgus, UniProt A0A2K5W7M7 31-151); assay: blocking ELISA: cynoBTLA-human Fc binding to coated human HVEM-ratIgG2a
T1 construct: not shown: human Fc

human BTLA-human Fc = molecular target: T2, human BTLA-human Fc (human, UniProt Q7Z6A9 31-151, limits assumed); assay: blocking ELISA: BTLA-human Fc binding to coated human HVEM-ratIgG2a
T2 construct: not shown: human Fc

recombinant human BTLA = recombinant human BTLA (human, UniProt Q7Z6A9 31-151, limits assumed); assay: Bio-Layer Interferometry (Octet), antibody captured by anti-human-Fc, BTLA in solution, 1:1 model
[1] = molecular target: T3, cynomolgus BTLA (analyte in Bio-Layer Interferometry) (cynomolgus, UniProt A0A2K5W7M7 31-151); assay: as above
T3 construct: also called Cyno BTLA

cynomolgus BTLA(ECD)-HIS = molecular target: T4, cynomolgus BTLA(ECD)-HIS (cynomolgus, UniProt A0A2K5W7M7 31-157); assay: ELISA, BTLA(ECD)-HIS coated, chemiluminescence (RLU)
T4 construct: extracellular domain; also called Cyno BTLA; not shown: HIS tag

human BTLA(ECD)-HIS = molecular target: T5, human BTLA(ECD)-HIS (human, UniProt Q7Z6A9 31-157); assay: as above
T5 construct: extracellular domain; not shown: HIS tag

[2] = molecular target: T6, human BTLA expressed on HEK-293 cells (human, UniProt Q7Z6A9 31-289); assay: flow cytometry (MFI) on HEK 293 cells expressing BTLA
T6 construct: whole, on cells

[3] = molecular target: T7, cynomolgus BTLA expressed on HEK-293 cells (cynomolgus, UniProt A0A2K5W7M7 31-289); assay: as above
T7 construct: whole, on cells; also called Cyno BTLA
T7 sequence (A0A2K5W7M7 entry or part of it): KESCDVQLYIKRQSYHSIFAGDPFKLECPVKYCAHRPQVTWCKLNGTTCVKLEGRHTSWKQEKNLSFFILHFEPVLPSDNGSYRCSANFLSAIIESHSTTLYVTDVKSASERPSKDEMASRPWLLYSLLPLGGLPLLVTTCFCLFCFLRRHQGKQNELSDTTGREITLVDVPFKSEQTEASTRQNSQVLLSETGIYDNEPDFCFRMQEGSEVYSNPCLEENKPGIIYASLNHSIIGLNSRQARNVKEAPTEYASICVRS

T4 sequence (A0A2K5W7M7 entry or part of it): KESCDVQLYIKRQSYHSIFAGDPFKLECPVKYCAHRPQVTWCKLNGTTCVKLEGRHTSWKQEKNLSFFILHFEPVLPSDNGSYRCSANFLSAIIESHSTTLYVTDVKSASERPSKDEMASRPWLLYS
T1 sequence (A0A2K5W7M7 entry or part of it): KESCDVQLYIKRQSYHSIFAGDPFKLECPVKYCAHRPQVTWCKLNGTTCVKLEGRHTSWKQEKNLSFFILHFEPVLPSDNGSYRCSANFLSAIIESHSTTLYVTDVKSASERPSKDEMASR

B1: anti-BTLA antibody 15-C19A (antibody, V domains shown)
VH: QVQLQESGPGLVKPSETLSLTCTVSGGSISSYYWSWIRQPPGKGLEWIGYISYSGSTNYNPSLKSRVTISADTSKNQFSLKLSSVTAADTAVYYCARDFYYGMDVWGQGTTVTVSS
VL: AIQLTQSPSSLSASVGDRVTITCRASQGISSALAWYQQKPGKAPKLLIYDASSLESGVPSRFSGSGSGTDFTLTISSLQPEDFATYYCHQFDYYPTFGGGTKVEIK
IC50 (cynoBTLA-human Fc): 2.4 nM | IC50 (human BTLA-human Fc): 3.5 nM | Kd (recombinant human BTLA): 144 nM | Kd [1]: 0.1 nM | EC50 (cynomolgus BTLA(ECD)-HIS): 1.4 nM | EC50 (human BTLA(ECD)-HIS): 0.8 nM | EC50 [2]: 5.5 nM | EC50 [3]: 4.4 nM

Source: patent publication US20230340123A1 (published 2023)
